# Reference: patent US20250262210A1 (TRUSTEES OF COLUMBIA UNIVERSITY IN THE CITY OF NEW YORK, published 2025)
# Positions count from the first letter of the chain named.
# T1: LZTR1 R810W-FLAG (human, UniProt Q8N653 1-840)
# T1 construct: Stably expressed in U87 cells by lentivirus; also called LZTR1-FLAG-R810W; LZTR1 RW; not shown: FLAG tag
# T1 sequence (looked up): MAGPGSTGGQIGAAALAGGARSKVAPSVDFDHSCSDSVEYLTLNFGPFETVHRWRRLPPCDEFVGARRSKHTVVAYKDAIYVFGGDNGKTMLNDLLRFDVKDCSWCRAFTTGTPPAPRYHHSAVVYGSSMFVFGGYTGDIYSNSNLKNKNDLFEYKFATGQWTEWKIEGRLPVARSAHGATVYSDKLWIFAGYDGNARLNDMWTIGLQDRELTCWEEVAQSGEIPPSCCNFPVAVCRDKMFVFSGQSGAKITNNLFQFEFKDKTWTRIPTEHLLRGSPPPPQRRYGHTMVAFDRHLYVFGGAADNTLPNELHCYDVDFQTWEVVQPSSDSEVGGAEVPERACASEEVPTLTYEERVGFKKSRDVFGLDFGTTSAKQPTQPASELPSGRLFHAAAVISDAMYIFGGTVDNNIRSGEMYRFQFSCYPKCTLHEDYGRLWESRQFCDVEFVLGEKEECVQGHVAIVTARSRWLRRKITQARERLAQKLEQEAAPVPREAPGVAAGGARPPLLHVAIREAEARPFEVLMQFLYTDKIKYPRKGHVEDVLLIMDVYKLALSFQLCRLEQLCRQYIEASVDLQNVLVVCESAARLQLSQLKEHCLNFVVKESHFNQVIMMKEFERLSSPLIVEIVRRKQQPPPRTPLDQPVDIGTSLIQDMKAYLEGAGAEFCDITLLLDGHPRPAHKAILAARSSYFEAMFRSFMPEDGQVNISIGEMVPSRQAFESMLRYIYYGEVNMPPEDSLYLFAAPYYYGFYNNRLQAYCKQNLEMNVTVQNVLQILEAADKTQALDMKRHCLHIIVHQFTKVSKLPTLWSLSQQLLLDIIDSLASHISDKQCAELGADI
# T2: LZTR1-FLAG (human, UniProt Q8N653 1-840)
# T2 construct: Expressed in HEK 293T, HeLa or U87 cells; used as cell lysate; also called LZTR1 wild type-FLAG; LZTR1 WT; not shown: FLAG tag at the C-terminus
# T2 sequence (looked up): T1 sequence (looked up) with W810R
# B1: GMPPA (other, human, UniProt Q96IJ6 1-420, looked up)
# chain: MLKAVILIGGPQKGTRFRPLSFEVPKPLFPVAGVPMIQHHIEACAQVPGMQEILLIGFYQPDEPLTQFLEAAQQEFNLPVRYLQEFAPLGTGGGLYHFRDQILAGSPEAFFVLNADVCSDFPLSAMLEAHRRQRHPFLLLGTTANRTQSLNYGCIVENPQTHEVLHYVEKPSTFISDIINCGIYLFSPEALKPLRDVFQRNQQDGQLEDSPGLWPGAGTIRLEQDVFSALAGQGQIYVHLTDGIWSQIKSAGSALYASRLYLSRYQDTHPERLAKHTPGGPWIRGNVYIHPTAKVAPSAVLGPNVSIGKGVTVGEGVRLRESIVLHGATLQEHTCVLHSIVGWGSTVGRWARVEGTPSDPNPNDPRARMDSESLFKDGKLLPAITILGCRVRIPAEVLILNSIVLPHKELSRSFTNQIIL
# B2: IKBKB (other, human, UniProt O14920 1-756, looked up)
# chain: MSWSPSLTTQTCGAWEMKERLGTGGFGNVIRWHNQETGEQIAIKQCRQELSPRNRERWCLEIQIMRRLTHPNVVAARDVPEGMQNLAPNDLPLLAMEYCQGGDLRKYLNQFENCCGLREGAILTLLSDIASALRYLHENRIIHRDLKPENIVLQQGEQRLIHKIIDLGYAKELDQGSLCTSFVGTLQYLAPELLEQQKYTVTVDYWSFGTLAFECITGFRPFLPNWQPVQWHSKVRQKSEVDIVVSEDLNGTVKFSSSLPYPNNLNSVLAERLEKWLQLMLMWHPRQRGTDPTYGPNGCFKALDDILNLKLVHILNMVTGTIHTYPVTEDESLQSLKARIQQDTGIPEEDQELLQEAGLALIPDKPATQCISDGKLNEGHTLDMDLVFLFDNSKITYETQISPRPQPESVSCILQEPKRNLAFFQLRKVWGQVWHSIQTLKEDCNRLQQGQRAAMMNLLRNNSCLSKMKNSMASMSQQLKAKLDFFKTSIQIDLEKYSEQTEFGITSDKLLLAWREMEQAVELCGRENEVKLLVERMMALQTDIVDLQRSPMGRKQGGTLDDLEEQARELYRRLREKPRDQRTEGDSQEMVRLLLQAIQSFEKKVRVIYTQLSKTVVCKQKALELLPKVEEVVSLMNEDEKTVVRLQEKRQKELWNLLKIACSKVRGPVSGSPDSMNASRLSQPGQLMSQPSTASNSLPEPAKKSEELVAEAHNLCTLLENAIQDTVREQDQSFTALDWSWLQTEEEEHSCLEQAS
# B3: IFI16 (other, human, UniProt Q16666 1-785, looked up)
# chain: MGKKYKNIVLLKGLEVINDYHFRMVKSLLSNDLKLNLKMREEYDKIQIADLMEEKFRGDAGLGKLIKIFEDIPTLEDLAETLKKEKLKVKGPALSRKRKKEVDATSPAPSTSSTVKTEGAEATPGAQKRKKSTKEKAGPKGSKVSEEQTQPPSPAGAGMSTAMGRSPSPKTSLSAPPNSSSTENPKTVAKCQVTPRRNVLQKRPVIVKVLSTTKPFEYETPEMEKKIMFHATVATQTQFFHVKVLNTSLKEKFNGKKIIIISDYLEYDSLLEVNEESTVSEAGPNQTFEVPNKIINRAKETLKIDILHKQASGNIVYGVFMLHKKTVNQKTTIYEIQDDRGKMDVVGTGQCHNIPCEEGDKLQLFCFRLRKKNQMSKLISEMHSFIQIKKKTNPRNNDPKSMKLPQEQRQLPYPSEASTTFPESHLRTPQMPPTTPSSSFFTKKSEDTISKMNDFMRMQILKEGSHFPGPFMTSIGPAESHPHTPQMPPSTPSSSFLTTKSEDTISKMNDFMRMQILKEGSHFPGPFMTSIGPAESHPHTPQMPPSTPSSSFLTTLKPRLKTEPEEVSIEDSAQSDLKEVMVLNATESFVYEPKEQKKMFHATVATENEVFRVKVFNIDLKEKFTPKKIIAIANYVCRNGFLEVYPFTLVADVNADRNMEIPKGLIRSASVTPKINQLCSQTKGSFVNGVFEVHKKNVRGEFTYYEIQDNTGKMEVVVHGRLTTINCEEGDKLKLTCFELAPKSGNTGELRSVIHSHIKVIKTRKNKKDILNPDSSMETSPDFFF
# B4: IFT57 (other, human, UniProt Q9NWB7 1-429, looked up)
# chain: MTAALAVVTTSGLEDGVPRSRGEGTGEVVLERGPGAAYHMFVVMEDLVEKLKLLRYEEEFLRKSNLKAPSRHYFALPTNPGEQFYMFCTLAAWLINKAGRPFEQPQEYDDPNATISNILSELRSFGRTADFPPSKLKSGYGEHVCYVLDCFAEEALKYIGFTWKRPIYPVEELEEESVAEDDAELTLNKVDEEFVEEETDNEENFIDLNVLKAQTYHLDMNETAKQEDILESTTDAAEWSLEVERVLPQLKVTIRTDNKDWRIHVDQMHQHRSGIESALKETKGFLDKLHNEITRTLEKISSREKYINNQLENLVQEYRAAQAQLSEAKERYQQGNGGVTERTRLLSEVMEELEKVKQEMEEKGSSMTDGAPLVKIKQSLTKLKQETVEMDIRIGIVEHTLLQSKLKEKSNMTRNMHATVIPEPATGFY
# B5: GUCY1B1 (other, human, UniProt Q02153 1-619, looked up)
# chain: MYGFVNHALELLVIRNYGPEVWEDIKKEAQLDEEGQFLVRIIYDDSKTYDLVAAASKVLNLNAGEILQMFGKMFFVFCQESGYDTILRVLGSNVREFLQNLDALHDHLATIYPGMRAPSFRCTDAEKGKGLILHYYSEREGLQDIVIGIIKTVAQQIHGTEIDMKVIQQRNEECDHTQFLIEEKESKEEDFYEDLDRFEENGTQESRISPYTFCKAFPFHIIFDRDLVVTQCGNAIYRVLPQLQPGNCSLLSVFSLVRPHIDISFHGILSHINTVFVLRSKEGLLDVEKLECEDELTGTEISCLRLKGQMIYLPEADSILFLCSPSVMNLDDLTRRGLYLSDIPLHDATRDLVLLGEQFREEYKLTQELEILTDRLQLTLRALEDEKKKTDTLLYSVLPPSVANELRHKRPVPAKRYDNVTILFSGIVGFNAFCSKHASGEGAMKIVNLLNDLYTRFDTLTDSRKNPFVYKVETVGDKYMTVSGLPEPCIHHARSICHLALDMMEIAGQVQVDGESVQITIGIHTGEVVTGVIGQRMPRYCLFGNTVNLTSRTETTGEKGKINVSEYTYRCLMSPENSDPQFHLEHRGPVSMKGKKEPMQVWFLSRKNTGTEETKQDDD
# B6: GPD2 (other, human, UniProt P43304 43-727, looked up)
# chain: ADCISEPVNREPPSREAQLLTLQNTSEFDILVIGGGATGSGCALDAVTRGLKTALVERDDFSSGTSSRSTKLIHGGVRYLQKAIMKLDIEQYRMVKEALHERANLLEIAPHLSAPLPIMLPVYKWWQLPYYWVGIKLYDLVAGSNCLKSSYVLSKSRALEHFPMLQKDKLVGAIVYYDGQHNDARMNLAIALTAARYGAATANYMEVVSLLKKTDPQTGKVRVSGARCKDVLTGQEFDVRAKCVINATGPFTDSVRKMDDKDAAAICQPSAGVHIVMPGYYSPESMGLLDPATSDGRVIFFLPWQKMTIAGTTDTPTDVTHHPIPSEEDINFILNEVRNYLSCDVEVRRGDVLAAWSGIRPLVTDPKSADTQSISRNHVVDISESGLITIAGGKWTTYRSMAEDTINAAVKTHNLKAGPSRTVGLFLQGGKDWSPTLYIRLVQDYGLESEVAQHLAATYGDKAFEVAKMASVTGKRWPIVGVRLVSEFPYIEAEVKYGIKEYACTAVDMISRRTRLAFLNVQAAEEALPRIVELMGRELNWDDYKKQEQLETARKFLYYEMGYKSRSEQLTDRSEISLLPSDIDRYKKRFHKFDADQKGFITIVDVQRVLESINVQMDENTLHEILNEVDLNKNGQVELNEFLQLMSAIQKGRVSGSRLAILMKTAEENLDRRVPIPVDRSCGGL
# Molecular target: T1, LZTR1 R810W-FLAG
# Test: IP/MS, LZTR1 R810W-FLAG, U87
# Outline: (§1)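 Extracted peptides in 3% acetonitrile/0.1% formic acid ran on a 50 cm C18 column into an Orbitrap Fusion, with MaxQuant identification and spectral counting.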
row,binding result,Binder
1,binds,B1
2,binds,B2
3,binds,B3
4,binds,B4
5,binds,B5
6,binds,B6

# Molecular target: T2, LZTR1-FLAG
# Test: IP/MS, LZTR1 wild type-FLAG, U87
# Outline: as §1
row,binding result,Binder
1,binds,B1
2,binds,B2
3,binds,B3
4,binds,B4
5,binds,B5
6,binds,B6
